Assays:
Details in all cases: protein: recombinant; tags: N-terminal His-tag (pET28a, NheI/BamHI) removed with thrombin; label: 5' TAMRA on forward strand; blunt
[1] = biological target: T1, NifA 2C-DBD (DNA binding domain with upstream Cys pair) (Gluconacetobacter diazotrophicus, UniProt A9H5T0 520-581); test: fluorescence anisotropy; oxidized (disulfide), no DTT; 10 mM Tris pH 8, 60 mM NaCl, 0.2 mM MgCl2 (5 mM DTT when reducing), 900 nM probe, 0-80 µM protein, 30 min at room temperature
T1 sequence: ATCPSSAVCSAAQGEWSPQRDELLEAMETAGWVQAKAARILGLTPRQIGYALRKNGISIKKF

[2] = biological target: T1, NifA 2C-DBD (DNA binding domain with …); test: fluorescence anisotropy; reduced, 5 mM DTT; 10 mM Tris pH 8, 60 mM NaCl, 0.2 mM MgCl2 (5 mM DTT when reducing), 900 nM probe, 0-80 µM protein, 30 min at room temperature
[3] = biological target: T2, NifA NC-DBD (DNA binding domain without Cys pair) (Gluconacetobacter diazotrophicus, UniProt A9H5T0 530-581); test: fluorescence anisotropy; no DTT; 10 mM Tris pH 8, 60 mM NaCl, 0.2 mM MgCl2 (5 mM DTT when reducing), 900 nM probe, 0-80 µM protein, 30 min at room temperature
T2 sequence: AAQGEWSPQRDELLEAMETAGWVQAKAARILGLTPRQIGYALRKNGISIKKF

B1: nifH-UAS duplex, TAMRA-labeled (dsDNA)
DNA 1: CGGTTTTGTCAGGCTTCGCACAAAGCCG
DNA 2: CGGCTTTGTGCGAAGCCTGACAAAACCG
Question: With B1 as the binder, how does the Kd [1] read?
Answer: Its Kd is 34.5 ± 8.4 µM.

Question: What about the Kd [2] of the same binder?
Answer: The Kd was 31.5 ± 8.1 µM.

Question: What about the Kd [3] of the same binder?
Answer: Its Kd is 20 ± 5.6 µM.

— PMC10590331, “Purification and Biochemical Characterization of the DNA Binding Domain of the Nitrogenase Transcriptional Activator NifA from Gluconacetobacter diazotrophicus”
